In US20170145112A1 (Genentech, published 2017):
Where a chain is given by its changes, count along the chain named. In names and notes the source's numbering stands. Blank lines part the entries; values can stand above or below the binder they belong to.

What was measured:
[1] = molecular target: T1, Human complement Factor D, mature (human, UniProt P00746 27-253); assay: cell-based or functional assay
[2] = molecular target: T1, Human complement Factor D, mature; assay: SPR, Biacore T200, IgG captured by anti-Fc, human factor D injected
[3] = molecular target: T1, Human complement Factor D, mature; assay: cell-based or functional assay; remark: listed apart in the source
[4] = molecular target: T1, Human complement Factor D, mature; assay: SPR, Fab captured by anti-huFab, human Factor D injected
Procedure: (§1) Kinetics and binding constant KD for Factor D binding to immobilized hu20D12 versions was determined by surface plasmon resonance (SPR) measurements on a Biacore®T200 instrument. […] After subtraction of the sensorgram observed for injection of running buffer, data were analyzed according to a 1:1 model using BiaEval software v4.1 (GE Healthcare) to extract the kinetics and affinity constants.

[5] = molecular target: T1, Human complement Factor D, mature; assay: cell-based or functional assay; remark: listed apart in the source
Target sequence in this assay (P00746 27-253): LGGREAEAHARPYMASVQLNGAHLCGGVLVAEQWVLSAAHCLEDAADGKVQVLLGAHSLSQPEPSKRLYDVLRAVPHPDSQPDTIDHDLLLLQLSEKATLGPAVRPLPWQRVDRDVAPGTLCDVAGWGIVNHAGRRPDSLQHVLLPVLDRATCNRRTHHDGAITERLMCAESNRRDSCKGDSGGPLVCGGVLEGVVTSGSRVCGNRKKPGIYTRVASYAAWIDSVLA

[6] = molecular target: T1, Human complement Factor D, mature; assay: SPR, at the limit of detection
Target sequence in this assay (P00746 27-253): as above
Procedure: as §1

[7] = molecular target: T1, Human complement Factor D, mature; assay: cell-based or functional assay; remark: listed apart in the source
Target sequence in this assay (P00746 27-253): as above

[8] = molecular target: T1, Human complement Factor D, mature; assay: cell-based or functional assay; remark: listed apart in the source
[9] = molecular target: T2, Cynomolgus monkey complement Factor D (cynomolgus monkey, UniProt P00746 26-253 (human entry)); assay: SPR (Biacore T200), Fab format; cynomolgus Factor D (column 'KD (pM) cFD (cyno)')
T2 construct: also called cyfD; cFD
T2 chain: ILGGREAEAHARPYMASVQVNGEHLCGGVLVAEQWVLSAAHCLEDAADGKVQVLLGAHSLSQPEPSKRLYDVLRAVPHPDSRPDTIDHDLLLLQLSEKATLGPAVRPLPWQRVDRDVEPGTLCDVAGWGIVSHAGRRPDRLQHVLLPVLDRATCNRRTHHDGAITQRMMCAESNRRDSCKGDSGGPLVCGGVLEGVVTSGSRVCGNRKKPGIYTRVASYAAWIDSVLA

[10] = molecular target: T1, Human complement Factor D, mature; assay: SPR (Biacore T200): Fab captured with anti-huFab kit, human Factor D injected, 25 C, 1:1 model;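 note: sensorgrams were corrected by subtracting a blank injection of running buffer before fitting kinetic and affinity constants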
Procedure: as §1

[11] = molecular target: T1, Human complement Factor D, mature; assay: cell-based or functional assay; remark: listed apart in the source
[12] = molecular target: T1, Human complement Factor D, mature; assay: SPR (refers to FIG. 11); hu20D12.v2.0
Procedure: as §1

[13] = molecular target: T2, Cynomolgus monkey complement Factor D; assay: SPR, cynomolgus monkey factor D
[14] = molecular target: T1, Human complement Factor D, mature; assay: SPR, Fab captured by anti-huFab, human Factor D injected; remark: listed apart in the source

Kd [2]: 0.066 nM
koff [2]: 0.00039 s⁻¹
kon [2]: 5.9e+06 M⁻¹ s⁻¹
B1: murine 20D12 (mu20D12) IgG (antibody, V domains shown)
VH: QVQLQQSGAELVKPGASVKLSCKASGYTFTSYYMYWVKERPGQGLEWIGEINPTNGGTNFNEKFKSKATLTVDTSSNTAYMQLSSLTSEDSAVYYCAREGGFAYWGQGTLVTVSA
VL: DIVMTQSQKFMSTSVGDRVSVTCKASQNVDTDVAWFQQKPGQSPRGLIYSASSRYSGVPDRFTGSGSGTDFTLTISNVQSEDLAEYFCQQYNNYPLTFGSGTKVEIK
notes: IgG format, mouse antibody
Hemolysis IC50 [1]: 4 nM

AVG IC50 (pM), TR-FRET assay of Factor D-dependent factor B activation [5]: 31.2 pM
Kd [6]: ~0.01 nM
IC50, TR-FRET assay of Factor D (50 pM) cleavage of factor B [7]: 31 pM
FRET IC50 (TR-FRET assay of Factor D-dependent factor B activation), value 1 of 3 in the cell [8]: 0.025 nM
FRET IC50 (TR-FRET assay of Factor D-dependent factor B activation), value 2 of 3 in the cell [8]: 0.031 nM
FRET IC50 (TR-FRET assay of Factor D-dependent factor B activation), value 3 of 3 in the cell [8]: 0.031 nM
Kd [9]: 0.024 nM
Kd [10]: < 0.01 nM
koff [10]: 2.9e-05 s⁻¹
kon [10]: 1.2e+07 M⁻¹ s⁻¹
B5: hu20D12.v2.3 Fab (Fab, V domains shown)
VH: EVQLVQSGAEVKKPGASVKVSCKASGYTFTSYYMYWVRQAPGQGLEWIGEINPYSGDTNFNEKFKSRATLTVDTSTSTAYLELSSLRSEDTAVYYCAREGGFAYWGQGTLVTVSS
VL: DIQMTQSPSSLSASVGDRVTITCKASQNVDTDVAWFQQKPGKAPKGLIRSASSRYSGVPSRFSGSGSGTDFTLTISSLQPEDFATYYCQQYNNYPLTFGQGTKVEIKR

Kd [6]: ~0.01 nM
Kd [13]: 0.017 nM
fold improvement of affinity relative to hu20D12.v2.0 [13]: ~10 fold
fold improvement of affinity relative to lampalizumab [13]: 2 fold
IC50, TR-FRET assay of Factor D (50 pM) cleavage of factor B [7]: 32 pM
FRET IC50 (TR-FRET assay of Factor D-dependent factor B activation), value 1 of 2 in the cell [8]: 0.033 nM
FRET IC50 (TR-FRET assay of Factor D-dependent factor B activation), value 2 of 2 in the cell [8]: 0.032 nM
fold improvement in binding relative to hu20D12.v2.0 [14]: ≥ 4 fold
Kd [10]: < 0.01 nM
koff [10]: 8.1e-05 s⁻¹
kon [10]: 1.2e+07 M⁻¹ s⁻¹
B7: hu20D12.v2.1 Fab (Fab, V domains shown)
VH: B5 VH with Y54T, D57G
VL: B5 VL

More lines, now with the values behind:

B2: hu20D12.v1 Fab (Fab, V domains shown)
VH: B5 VH with Y54T, S55N, D57G
VL: B5 VL with R49Y
notes: Fab expressed in E. coli
IC50 Hemolysis [3]: 2.8 nM
Kd [4]: 0.033 nM

B3: hu20D12.v1 IgG (antibody, V domains shown)
VH: B5 VH with Y54T, S55N, D57G
VL: DIQMTQSPSSLSASVGDRVTITCKASQNVDTDVAWFQQKPGKAPKGLIYSASSRYSGVPSRFSGSGSGTDFTLTISSLQPEDFATYYCQQYNNYPLTFGQGTKVEIK
notes: Expressed as full length IgG in CHO cells
Hemolysis IC50 [1]: 4.3 nM
Kd [2]: 0.046 nM
koff [2]: 0.00067 s⁻¹
kon [2]: 1.5e+07 M⁻¹ s⁻¹

B4: hu20D12.v1.1 Fab (Fab, V domains shown)
VH: B5 VH with Y54T, S55Q, D57G
VL: B5 VL with R49Y
notes: Fab expressed in E. coli; also called Hu20D12.v1.N54Q
IC50 Hemolysis [3]: 6.7 nM
Kd [4]: 0.045 nM

B6: hu20D12.v2.0 Fab (Fab, V domains shown)
VH: B5 VH with Y54T, D57G
VL: B5 VL with R49Y
notes: Fab expressed in E. coli; also called Hu20D12.v1.N54S; hu20D12.v1.N54S
IC50 in the TR-FRET assay, fold against lampalizumab [11]: ~2 fold
IC50 Hemolysis [3]: 4.7 nM
AVG IC50 (pM), TR-FRET assay of Factor D-dependent factor B activation [5]: 59.2 pM
FRET IC50 (TR-FRET assay of Factor D-dependent factor B activation), value 1 of 2 in the cell [8]: 0.051 nM
FRET IC50 (TR-FRET assay of Factor D-dependent factor B activation), value 2 of 2 in the cell [8]: 0.059 nM
Kd [12]: 0.039 nM
Kd [4]: 0.04 nM
Kd [9]: 0.152 nM
koff [10]: 0.00055 s⁻¹
kon [10]: 1.4e+07 M⁻¹ s⁻¹
